Reference: US20130089544A1 (AstraZeneca / MedImmune, published 2013)
Substitutions are numbered along the chain they refer to.

B1: monoclonal antibody 1.100.1 (antibody, V domains shown)
VH: EVQLVESGGGLVKPGGSLRLSCAASGFTFSSYSMNWVRQAPGKGLEWVSSISSSSSYIYYADSVKGRFTISRDNAKNSLYLQMNSLRAEDTAVYYCARGGDGYNYYYFDYWGQGTLVTVSS
VL: DIVMTQSPDSLAVSLGERATITCKSSQSVFFRSNNKNCLAWYQQRPGQPPNLLIYWASTRESGVPDRFSGSGCGTDFTLTISSLQAEDVAVYYCQQYFGSPFTFGPGTKVDIK
notes: Fully human IgG (gamma/kappa) from a XenoMouse XM3B-3 hybridoma; constant regions not tied to it; also called 1.100.2; 1.100.3
B2: monoclonal antibody 1.14.1 (antibody, V domains shown)
VH: B1 VH
VL: B1 VL with A40T, C73S, S82N, S83N
notes: Fully human IgG (gamma/kappa) from a XenoMouse XM3B-3 hybridoma; constant regions not tied to it
B3: monoclonal antibody 1.18.1 (antibody, V domains shown)
VH: B1 VH with R87S, Y95S
VL: B1 VL with D9G, A12V, P49S, C73S
notes: as for B2
B4: monoclonal antibody 1.39 (antibody, V domains shown)
VH: B1 VH
VL: B1 VL with T59S, C73S, T78A, A86T
notes: Fully human IgG (gamma/kappa) from a XenoMouse XM3B-3 hybridoma; constant regions not tied to it; also called 1.39.1; 1.39.2

How the values were obtained:
[1] = target: T1, human ErbB2, full length, on cells (human, UniProt P04626 23-1255); experiment: cell-based or functional assay
[2] = target: T1, human ErbB2, full length, on cells; experiment: cell-based or functional assay; remark: listed apart in the source
[3] = target: T1, human ErbB2, full length, on cells; experiment: cell-based or functional assay; remark: listed apart in the source
[4] = target: T2, human ErbB2 ECD-myc/His fusion protein (human, UniProt P04626 23-652); experiment: SPR, Biacore 2000 medium resolution; mAb captured on goat anti-human IgG, ErbB2(ECD)-cMyc/His injected; 1:1 fit
T2 construct: Made in-house in 293T cells; also called hErbB2(ECD)/cMyc-His; huErbB2 (ECD)/c-myc-His; not shown: c-myc/His tag of the pSecTag2Hygro vector
Procedure: The binding affinity of eight of the anti-ErbB2 antibodies was measured by medium resolution Biacore. All experiments were performed using a Biacore 2000 instrument.
First, 12 high-density goat α-human IgG antibody surfaces over three CM5 Biacore chips were prepared using routine amine coupling. […] Before each antigen injection cycle, each mAb was captured for six to nine seconds at a 100 μL/min flow rate. A 2-minute wash step followed each capture injection to stabilize each mAb baseline. […] All samples were randomly injected with several mAb capture/buffer inject cycles interspersed for double referencing. […] A flow rate of 100 μL/min. was used for all injection cycles. The data was fit to a 1:1 interaction model using CLAMP.

[5] = target: T1, human ErbB2, full length, on cells; experiment: cell-based or functional assay; remark: listed apart in the source
[6] = target: T2, human ErbB2 ECD-myc/His fusion protein; experiment: limited antigen ELISA, 31 ng/ml ErbB2 ECD-myc/His coated, supernatant 1:25
Procedure: […] […] Antigen-coated plates were washed three times, blocked with 1% non-fat skim milk/PBS for at least 30 minutes at room temperature, and then washed again three times. Each hybridoma line sample was titrated in 1% non-fat skim-milk/PBS 1:3 for 7 points starting from a 1:25 dilution. […] The next day, plates were washed three times and incubated with 50 μl of 400 ng/ml immunopure Goat anti-human IgG (Fc)-HRP (Pierce catalog #31416) for 1 hour at room temperature. Then, the plates were extensively washed and pat dried on paper towel to remove residual HRP in wells. HRP substrate TMB (enhanced K-blue TMB, Neogen catalog #308177) was added to each well and incubated for 30 min. The reaction was stopped by addition of 1N HCl. Optical density at 450 nm was read on a microplate reader (Titerteck Multiskan Ascent).

[7] = target: T1, human ErbB2, full length, on cells; experiment: cell-based or functional assay; remark: listed apart in the source
[8] = target: T1, human ErbB2, full length, on cells; experiment: cell-based or functional assay; remark: listed apart in the source
[9] = target: T2, human ErbB2 ECD-myc/His fusion protein; experiment: SPR, Biacore T100 high resolution; mAb captured on goat anti-human IgG, hHer-2(ECD)cMyc injected; 1:1 fit
Procedure: All experiments were performed using a Biacore T100 instrument. First, a high-density goat α human IgG antibody (Caltag H10500) surface was prepared over two CM5 Biacore chips using routine amine coupling. Each mAb was diluted in HBS-P running buffer containing 100 μg/ml Bovine serum albumin (BSA).
A capture level protocol was developed for all five mAbs. Before each antigen injection cycle, each mAb was captured for 15 to 30 seconds at a 20 μL/min flow rate. A 5-minute wash step followed each capture injection to stabilize each mAb baseline. […] The samples were prepared in the running buffer described above. All samples were randomly injected with several mAb capture/buffer inject cycles interspersed for double referencing. […] A flow rate of 50 μL/min. was used for all injection cycles.
All sensorgram data were fit to a 1:1 interaction model using CLAMP.

Binder | % Inhibition @10 µg/ml (n1), ErbB2 phosphorylation in BT474 cells at 48 hours [1] | % Inhibition @10 µg/ml (n2), ErbB2 phosphorylation in BT474 cells at 48 hours [1] | % inhibition @36 µg/ml, SKBR3 cell proliferation [2] | EC50 (ng/ml), inhibition of SKBR3 cell proliferation [2] | N1 % Inhibition @40 µg/ml, BT474 cell proliferation [3] | N1 EC50 (ng/ml), inhibition of BT474 cell proliferation [3] | N2 % Inhibition @40 µg/ml, BT474 cell proliferation [3] | N2 EC50 (ng/ml), inhibition of BT474 cell proliferation [3] | Kd [4] | koff [4] | kon [4] | 1 hr pTyr inhibition % (Heregulin-induced ErbB2 phosphorylation in MCF7 cells, hybridoma supernatant) [5] | 24 hr pTyr inhibition % (Heregulin-induced ErbB2 phosphorylation in MCF7 cells, hybridoma supernatant) [5] | LA at 31 ng/ml (OD) [6] | EC50 (ng/ml) n1, inhibition of Heregulin-induced ErbB2 phosphorylation in MCF7 cells [7] | EC50 (ng/ml) n2, inhibition of Heregulin-induced ErbB2 phosphorylation in MCF7 cells [7] | % Inhibition @10 µg/ml, Heregulin-induced MCF7 cell proliferation [8] | EC50 (ng/ml), inhibition of Heregulin-induced MCF7 cell proliferation [8] | also measured
B1 | 37% | 26% | 54% | 61.3 ng/mL | 35% | 169 ng/mL | 32% | 91.1 ng/mL | 2.9 nM | 0.000301 s⁻¹ | 104000 M⁻¹ s⁻¹ | 95% | 95% | 3.54 OD 450 nm | 39.9 ng/mL | 33.7 ng/mL | 95% | 2040 ng/mL | 
B2 | 37% | 45% | 52% | 35.7 ng/mL | 38% | 136 ng/mL | 39% | 63 ng/mL | 2.5 nM | 0.000256 s⁻¹ | 102000 M⁻¹ s⁻¹ | 103% | 100% | 3.99 OD 450 nm | 33.7 ng/mL | 22.9 ng/mL | 96% | 640 ng/mL | 
B3 | 24% | 33% | 46% | 26.3 ng/mL | 34% | 38.1 ng/mL | 39% | 28.2 ng/mL | 3 nM | 0.000302 s⁻¹ | 100000 M⁻¹ s⁻¹ | 85% | 96% | 3.03 OD 450 nm | 4.2 ng/mL | 10.8 ng/mL | 94% | 415 ng/mL | 
B4 | 37% | 26% | 41% | 68.9 ng/mL | 29% | 156 ng/mL | 40% | 42.3 ng/mL | 2 nM | 0.000236 s⁻¹ | 115000 M⁻¹ s⁻¹ | 82% | 99% | 2.57 OD 450 nm | 46.9 ng/mL | 26.3 ng/mL | 89% | 479 ng/mL | Kd [9]: 13.4 nM; koff [9]: 0.000214 s⁻¹; kon [9]: 16000 M⁻¹ s⁻¹
